{"source": "paper PMC2267071", "key": {"[1]": {"biological_target": "His5 (position 5, -TEAHHK----)", "test": "NMR", "conditions": "25 C; free peptide (no metal), 5 mM"}, "[2]": {"biological_target": "His4 (position 4, --TEAHHK---)", "test": "NMR", "conditions": "25 C; free peptide (no metal), 5 mM"}, "[3]": {"biological_target": "Glu2 (position 2, ----TEAHHK-)", "test": "potentiometry", "conditions": "25 C; 0.1 M KNO3; free peptide (no metal)"}, "[4]": {"biological_target": "His5 (position 5, -TEAHHK----)", "test": "potentiometry", "conditions": "25 C; 0.1 M KNO3; free peptide (no metal)"}, "[5]": {"biological_target": "Lys6 (position 6, TEAHHK-----)", "test": "potentiometry", "conditions": "25 C, 0.1 M KNO3"}, "[6]": {"biological_target": "His4 (position 4, --TEAHHK---)", "test": "potentiometry", "conditions": "25 C; 0.1 M KNO3; free peptide (no metal)"}, "[7]": {"biological_target": "His5 (position 5, -TASHHK----)", "test": "NMR", "conditions": "25 C; free peptide (no metal), 5 mM"}, "[8]": {"biological_target": "His4 (position 4, --TASHHK---)", "test": "NMR", "conditions": "25 C; free peptide (no metal), 5 mM"}, "[9]": {"biological_target": "His5 (position 5, -TASHHK----)", "test": "potentiometry", "conditions": "25 C; 0.1 M KNO3; free peptide (no metal)"}, "[10]": {"biological_target": "Lys6 (position 6, TASHHK-----)", "test": "potentiometry", "conditions": "25 C; 0.1 M KNO3; free peptide (no metal)"}, "[11]": {"biological_target": "His4 (position 4, --TASHHK---)", "test": "potentiometry", "conditions": "25 C; 0.1 M KNO3; free peptide (no metal)"}, "[12]": {"biological_target": "His5 (position 5, -TESHHK----)", "test": "NMR", "conditions": "25 C; free peptide (no metal), 5 mM"}, "[13]": {"biological_target": "His4 (position 4, --TESHHK---)", "test": "NMR", "conditions": "25 C; free peptide (no metal), 5 mM"}, "[14]": {"biological_target": "His5 (position 5, -TESHHK----)", "test": "potentiometry", "conditions": "25 C; 0.1 M KNO3; free peptide (no metal)"}, "[15]": {"biological_target": "Glu2 (position 2, ----TESHHK-)", "test": "potentiometry", "conditions": "25 C; 0.1 M KNO3; free peptide (no metal)"}, "[16]": {"biological_target": "Lys6 (position 6, TESHHK-----)", "test": "potentiometry", "conditions": "25 C, 0.1 M KNO3"}, "[17]": {"biological_target": "His4 (position 4, --TESHHK---)", "test": "potentiometry", "conditions": "25 C; 0.1 M KNO3; free peptide (no metal)"}, "[18]": {"conditions": "Zn(II)-bound peptide (ZnH-1L to ZnH-2L step), peptide:Zn ratios 1:1 and 2:1"}}, "note": "Where “and” joins values, the source holds several entries; their conditions need not be identical. Equal entries are not always repeated."}
{"protein": "TEAHHK", "values": [{"measurement": "pKa", "setting": "[1]", "result": "6.48 (2) and 6.72 (2)"}, {"measurement": "pKa", "setting": "[2]", "result": "6.42 (2) and 6.15 (3)"}, {"measurement": "pKa", "setting": "[3]", "result": 4.10}, {"measurement": "pKa", "setting": "[4]", "result": 6.68}, {"measurement": "pKa", "setting": "[5]; [18]", "result": 10.34}, {"measurement": "pKa", "setting": "[5]; free peptide (no metal)", "result": 10.25}, {"measurement": "pKa", "setting": "[6]", "result": 6.00}]}
{"protein": "TASHHK", "values": [{"measurement": "pKa", "setting": "[7]", "result": "6.30 (2) and 6.61 (4)"}, {"measurement": "pKa", "setting": "[8]", "result": "6.29 (2) and 6.06 (3)"}, {"measurement": "pKa", "setting": "[9]", "result": 6.62}, {"measurement": "pKa", "setting": "[10]", "result": 10.48}, {"measurement": "pKa", "setting": "[11]", "result": 5.74}]}
{"protein": "TESHHK", "values": [{"measurement": "pKa", "setting": "[12]", "result": "6.41 (2) and 6.88 (5)"}, {"measurement": "pKa", "setting": "[13]", "result": "6.35 (I) and 6.12 (4)"}, {"measurement": "pKa", "setting": "[14]", "result": 6.78}, {"measurement": "pKa", "setting": "[15]", "result": 3.85}, {"measurement": "pKa", "setting": "[16]; [18]", "result": 10.30}, {"measurement": "pKa", "setting": "[16]; free peptide (no metal)", "result": 10.28}, {"measurement": "pKa", "setting": "[17]", "result": 5.90}]}
